Measurements reported in a protein production outcome set (Wang et al. 2014).

Assay: label from the status in PepcDB records

Protein production, failed:
MNLKTLKIFIEGYGCTLNTADTNIINNSIKKFKNFIIVNNLDDADIVVINTCVVRLETEHKMISRINYIKSLNKYIVIAGCMPKALKKKAEKINPDILIMPKEAHLIGDIIYNYFKNNIGNENNADNKIEDSMKCGELPHNQASSSGNYNDIDNKLTQLKPNNLIMPLPISEGCTGKCTYCIVKIARGRLASYNPDKIINKAKEFVDNGVKQMLITSQDTACYGFDKNTTLPTLLNEICQIKGDFNIRIGMMHAKNVPMIIDELIDRYKDDKITKFFHLPIQSGDDDVLRAMKREYTVDEYMDIAMEFKRKIKDLNFNTDVIVGFPTETEDNFNNTIELLKKLKPDAIHGAKYTQRKGTEADRLKQVDTKIRKERMKILDKLRKEFSLENHEKYVGKIMPCLIVGKNEGITHNCKTVKFENCEDVKIGEFRKIKIKEALTFGLYGEIIN
MNLLIENIRGISYALVSPTLSLMLIVIAIIFYFKNRKIAFMQKLMLGRSIQSPLEMTLLQILIGILGGLIASLLLSILGVTFENSSLIDVILTVSVFSVLYKNRFLKFPYIAALLGVIGVLVSKNTEYFGRGFSFSINLTSIIVLIGVFSIVEGILAMIDGDKGYLPIFTQKDGKLVGGFGFKRFWALPLCLLVVLGANSGNSIINEVKDLPQWLPFFNGDKARALMSVAALGTLAAYGATSYEGTTFTQSKRSKTITSGLINIAYGIVVIILAYLLKESLVFTIALIILIPLLYELRIRMELKLESLREPLYFSNDDEICILDVLPNSIAYKKGLRSGDKIVKINEEIPKNEKEVFMAIKRNFYGLDLEIRKNNGNIEKHTITGEDRGKQFGIVLVPKGISFDKEIDEFLEKLKKASKDEEVKNK
MNLLTVSTDLISIFLFTTLFLFFARKVAKKVGLVDKPNFRKRHQGLIPLVGGISVYAGICFTFGIVDYYIPHASLYLACAGVLVFIGALDDRFDISVKIRATIQAAVGIVMMVFGKLYLSSLGYIFGSWEMVLGPFGYFLTLFAVWAAINAFNMVDGIDGLLGGLSCVSFAAIGMILWFDGQTSLAIWCFAMIAAILPYIMLNLGILGRRYKVFMGDAGSTLIGFTVIWILLETTQGKTHPISPVTALWIIAIPLMDMVAIMYRRLRKGMSPFSPDRQHIHHLIMRAGFTSRQAFVLITLAAALLASIGVLAEYSHFVPEWVMLVLFLLAFFLYGYCIKRAWKVARFIKRVKRRLRRNRGGSPNLTK
MNLLYVVLIGQILLFLIGAIYAMRQTKRTKDNMPLPLAIRLILSFSLTGSAIWIWLQDPSVEYSTWVALGMTLSTVGDLFMAGLIPIGHRLIGGMVTFALAHCFYVKAFLQTGISWNGFWIGLLVYGLFLIVGWFFFIRNDKQDKLFTIGALIYGLWVGGMACFAFALYYENTGIWWIPAFGGLLFVISDFIIGVTDIGGRKLKYEPLWIWFTYVAAQMCIVYVGL
MNLMRFLRRPISLRQRLILTIGAILLVFELISVFWLWHESTEQIQLFEQALRDNRNNDRHIMREIREAVASLIVPGVFMVSLTLFICYQAVRRITRPLAELQKELEARTADNLTPIAIHSATLEIEAVVSALNDLVSRLTSTLDNERLFTADVAHELRTPLAGVRLHLELLAKTHHIDVAPLVARLDQMMESVSQLLQLARAGQSFSSGNYQHVKLLEDVILPSYDELSTMLDQRQQTLLLPESAADITVQGDATLLRMLLRNLVENAHRYSPQGSNIMIKLQEDGGAVMAVEDEGPGIDESKCGELSKAFVRMDSRYGGIGLGLSIVSRITQLHHGQFFLQNRQETSGTRAWVRLKKDQNVANQI
MNLNNIRSSMTESTKSKDESMRSHLVKPGSVYDGIEPGELGETTESVQDRVRQLESRNSFLEEQCSQIESEKRYLENQKIKYEREIRKLQSELDRMKTSPLIIGTVIDVIKNDRIIVRSSNGPQFLVNVSQYIDEKKLLPGAKVALNQHTLAIAEVIPSTEEPFVAAMEVIESVEVDYDQIGGLDEQIQELQEAVELPLTSPERFARIGIEPPKGVLLYGLPGTGKTLLAKAVAHRTNATFIRVVGSELVQKYIGDGSKLVREIFEMARKKAPSIIFIDELDSIAARRLNETTGADREVQRTLMQLLAEMDGFDKRKNIRIIAATNRPDVLDPAILRPGRFDRLVHVPMPGIEARGKILKIHCEKMTLAEDIDFKKLAKATEGMSGADLKAIATEAGMFAVRRDKELVEMEEFLEAVEKVSMAADTQKMMPSNLPETMFV
MNLSKFPVYVQAAILALVLALVGYLVAQALQFSLKAEVIFAVGLAIGGFVVPLFLNRAPAGVAELASSQETCTLYVGNLPYRANEIAVRELFAEQGQVISVRLMKDKATGKRRGFGFVEMPAADAAKAIAALNDKEYQQRTLKVREANDKRDKDEREGSEVDA
MNLTFDYTKEPSRDVFCIDVKSFYASVECVERGLDPLKTMLVVMSNSENSGGLVLAASPMAKKVLGISNVTRKNEVPDHPNLIIVPPRMKLYMKKNQEINNLYKRFVSDEDHSVFSVDESFLDVTASLTYFKCDTAYKLAKIIQRVIYNHMGLYVTIGIGENPLLAKLALDNEAKNAPGFVAEWRYEDVPEKVWPISPLTEFCGIGNRMAARLKKLGIRSIYDLAHIEPYMLKERFGIMGLQLYAHSWGIDRSFLGQKAGRPTEKSFGNSQVLPKDYANKEQIKLVLKELSDQVASRLRMASCQTTCVSLFVGYSKGQTDKYGQTGWRRQMKVEPSNNTKVLTEHVLRLFEENYAPGVDVRNLGVSYGRLVWNKNLQLDLFSVPEEQIHETDMYFLIDKIRQKFGFKALIHASSLMEGATAISRASLVGGHAGGTVGLGTTK
MNLTFLGLCIACMGVSVGEGLLMNGLFKSVARQPDMLSEFRSLMFLGVAFIEGTFFVTLVFSFIIK
MNLTYLFVLIWLAFLISSGVMLFSRGFLLARVSKTETSTCRRLSTNPNAEYVLTDEVVNEIFKDVNASSNLCLPQKSKVIVLVVDALKYEFGLYRANATDPLPYENKLVVLQELLQQNPDHARLMRFRADPPTTTLQRLKGLTTGSLPTFIDIGSNFASPEINEDNIIDQIVKNDLPVVFLGDSTWTDLYPHRFKRSYSYPSFDIFDLDSVDNEILKHLPKELESKDWQVLVAHFLGVDHCGHKHGPMHEEMARKLGEMNEVIRSVVAAMDNDTTLLVMGDHGMTASGDHGGDTDDETNALLFAYSKQHRFYGNDSGSDSEMLQQIDLVPTLATILGVPIPYSNLGLVNFNIVPDLRVPHLNKFQTLLLHSWQNAQQIYRYFFQYALENKRTFNVEQMDHLETEFILLTHRVQTVYNEVAFKSFVRDLNTNLRDILGTCREIWVRFDPTQMSQGLLFTFLPLFFIFLVVNNSRPADFPHIFKAKEVFYVYLINLAAGVFGYRYFKTFSFKTEEQGVIFFTAISSAVILAFHTLRHWTSIATNWSAVKRFGHMPTRLLLFGSMAVFFSNSFVIQEAKILSYLLAAAILLLSHELLRLSARLDFRTKFKASQFLRSTALRLILASVLAICLIRFAYTLFRCREEQGNCSDFVNTGGAGFSLKKPGTGKTYILAVVVLVVYTTLTRLYLRSCGNLTGNLPNVLLARYGPTVASICAGGHILLANSSIKHIQRTHIDAMALVIYGLLLVQIIVLSWAPLMTFVLPPRSSHTVTINGNESIVPEIFRKMKRMYEGDDDERRSHIPVVYGLATVYSSIVIAFGVFLALVMIVLLEPRASIGLVVCVAVGAILLSVHSILRYRTATSFESCVQPTFTALVGWFLLAHFCFFATSHQTTLSQIEWRAAFVGRTTGIGQSNLVSGALVILNTFCGPIFFFCMYSLLSTETFSLFALFPNLIRSCRSGGKVDASTSMSDLANEAVGFDMTRGELSLYEYEDVFLGTGFKLATQFFMLQGLKIFCAMLACTIHCRHLMVWKIFAPRFIYEALATFVSLPALIVGYLLVLRIHRGVDTLIKRINKAKVH
MNMGMVTLAAIRSVPMATTYIRGGTVVSPTGCQDLDVLIDGERIAALVDPELAPFDDPDRTFDHVLEAKGKYVIPGGVDAHTHMEMPFGGTVASDTFETGTRAAAFGGTTTIIDFAIQRQGERVQDTLAAWHAKARGNCAVDYGFHQILGGVDTDALKAMDELVAEGVTSFKLFMAYPGVYYSDDGQILRAMQQCAGNGALTMMHAENGIAIDQLVAQHIERGETSPYYHGVSRPWELEEEATHRAIMLAKITGAPLYVVHVSAKQAMEQIAGARGSGANVFAETCPQYLYLSLEEQLAAPGFEGAKWVCSTPLRSHEEGHQEELWRYIRTGDVATVSTDHCPFCFKGQKEMGLGDFSKIPNGMSGVEHRIDLMYQGVVNGKLSLQRWVDVCATTPARMFGLYPRKGIVSPGADADVVIYDPDGRTSIGFEKNHHSNVDHSTWEGFEVEGCVQTVLSRGTIVVDRGRYLGRKGHGVFLKRGLSQYLI
MNMKLQVTVLKGDVIENGYEVVDAVEGNGNNDDSGDDGGEDEEGSADDAEGKETKKGPVSDPDLNGEAGDNDDEPEGDDGNDDEDDDNHENDDEDEEEDEDENDDGGEEDDDEDAEVEEEEEEEDEDDEEALQPPKKRKK
